Results: paper PMC8000282, “In Silico and In Vitro Tailoring of a Chitosan Nanoformulation of a Human Metabolic Enzyme” (Pharmaceutics, 2021)

Biological target: the molecule itself
Assay: SEC; HiLoad Superdex 200 HR column, 20 mM Na-Hepes, 200 mM NaCl, pH 7.0, 0.7 mL/min, 4 °C; relative molecular mass of the oligomeric forms estimated from a calibration curve with standard proteins

B1: human phenylalanine hydroxylase (enzyme, UniProt P00439 1-452, looked up)
chain: MSTAVLENPGLGRKLSDFGQETSYIEDNCNQNGAISLIFSLKEEVGALAKVLRLFEENDVNLTHIESRPSRLKKDEYEFFTHLDKRSLPALTNIIKILRHDIGATVHELSRDKKKDTVPWFPRTIQELDRFANQILSYGAELDADHPGFKDPVYRARRKQFADIAYNYRHGQPIPRVEYMEEEKKTWGTVFKTLKSLYKTHACYEYNHIFPLLEKYCGFHEDNIPQLEDVSQFLQTCTGFRLRPVAGLLSSRDFLGGLAFRVFHCTQYIRHGSKPMYTPEPDICHELLGHVPLFSDRSFAQFSQEIGLASLGAPDEYIEKLATIYWFTVEFGLCKQGDSIKAYGAGLLSSFGELQYCLSEKPKLLPLELEKTAIQNYTVTEFQPLYYVAESFNDAKEKVRNFAATIPRPFSVRYDPYTQRIEVLDNTQQLKILADSINSEIGILCSALQKIK
notes: human phenylalanine hydroxylase (hPAH), expressed in E. coli as a fusion protein; a His tag is inferred from pTrcHis and the Ni resin; The tetrameric fraction from SEC was used as the fusion protein; also called hPAH; Human PAH; source: E. coli, fusion protein, purified (Ni-chelating resin, SEC)
- stoichiometry N: 4
